Here are results for 40 molecules from publication PMC11417369, “DNA sequence and chromatin differentiate sequence-specific transcription factor binding in the human malaria parasite Plasmodium falciparum”.

The labels stand for the following.
B1: XGTACX_negctrl_site279 (dsDNA)
DNA 1: TTTTTACTATAAGGGGAAAAAAAAAAAAATAATATA
DNA 2: TATATTATTTTTTTTTTTTTCCCCTTATAGTAAAAA
B2: XGTACX_negctrl_site394 (dsDNA)
DNA 1: AGGTGAAAAATATATAATAATGTAACAAAAAAAAAT
DNA 2: ATTTTTTTTTGTTACATTATTATATATTTTTCACCT
B3: XGTACX_negctrl_site600 (dsDNA)
DNA 1: TTGAAATATACGTAAGTAAATTTCATTTGGTTGTGT
DNA 2: ACACAACCAAATGAAATTTACTTACGTATATTTCAA
B4: XGTACX_negctrl_site35 (dsDNA)
DNA 1: TTTTGACTAATATAATATGTTAAGAATTAATAAATA
DNA 2: TATTTATTAATTCTTAACATATTATATTAGTCAAAA
B5: XGTACX_negctrl_site369 (dsDNA)
DNA 1: TTTTTTTTTAATAAAATTATAATAAATATGAAATTA
DNA 2: TAATTTCATATTTATTATAATTTTATTAAAAAAAAA
B6: XGTACX_negctrl_site604 (dsDNA)
DNA 1: ATAAATCGATAAAATATATGCTACATGAATAAATAA
DNA 2: TTATTTATTCATGTAGCATATATTTTATCGATTTAT
B7: XGTACX_negctrl_site317 (dsDNA)
DNA 1: TTATATTCTTTTCTCTTTCTACTTTTTTTTTTTTTT
DNA 2: AAAAAAAAAAAAAAGTAGAAAGAGAAAAGAATATAA
B8: XGTACX_negctrl_site39 (dsDNA)
DNA 1: TTTTTAATTATCTTTTCCCATGGTTTCTCCGTTTTT
DNA 2: AAAAACGGAGAAACCATGGGAAAAGATAATTAAAAA
B9: XGTACX_negctrl_site541 (dsDNA)
DNA 1: TTGTCAAAAATTACACACATAAATGAATAAATAAAT
DNA 2: ATTTATTTATTCATTTATGTGTGTAATTTTTGACAA
B10: XGTACX_negctrl_site59 (dsDNA)
DNA 1: AATATTACGTGTTTGGTATTTTTCGATGTTGGCAGG
DNA 2: CCTGCCAACATCGAAAAATACCAAACACGTAATATT
B11: XGTACX_negctrl_site591 (dsDNA)
DNA 1: TTTTTATATAACCTTCTTAATTCTTTTTTTTTTTTT
DNA 2: AAAAAAAAAAAAAGAATTAAGAAGGTTATATAAAAA
B12: XGTACX_negctrl_site277 (dsDNA)
DNA 1: TTATTTTACTTTTATGCAACTAAAAATATTGCTATA
DNA 2: TATAGCAATATTTTTAGTTGCATAAAAGTAAAATAA
B13: XGTACX_negctrl_site493 (dsDNA)
DNA 1: CATATATAAATATAAATATATATATATATATATATG
DNA 2: B13 DNA 1 with A9T, A15T, A22T, A28T
B14: XGTACX_negctrl_site88 (dsDNA)
DNA 1: AAGGGGAGAAAAATAAACGAAATATATACATACATA
DNA 2: TATGTATGTATATATTTCGTTTATTTTTCTCCCCTT
B15: XGTACX_negctrl_site244 (dsDNA)
DNA 1: AAAAATATGAAGACACAATATAGAAATAAAAATATA
DNA 2: TATATTTTTATTTCTATATTGTGTCTTCATATTTTT
B16: XGTACX_negctrl_site283 (dsDNA)
DNA 1: TACTAAAATATATATATGCAACATGAGATATTCAAC
DNA 2: GTTGAATATCTCATGTTGCATATATATATTTTAGTA
B17: XGTACX_negctrl_site160 (dsDNA)
DNA 1: ACATGCCAAAATCTAATACAATAATAATAAAAAAAA
DNA 2: TTTTTTTTATTATTATTGTATTAGATTTTGGCATGT
B18: XGTACX_negctrl_site183 (dsDNA)
DNA 1: TATTTTTCTTTTTAAAAATATATCACATGAACATTA
DNA 2: TAATGTTCATGTGATATATTTTTAAAAAGAAAAATA
B19: XGTACX_negctrl_site501 (dsDNA)
DNA 1: AAATTATAAAAAAAAAAAAAAAAAAAAAAAAAAAAA
DNA 2: TTTTTTTTTTTTTTTTTTTTTTTTTTTTTATAATTT
B20: XGTACX_negctrl_site343 (dsDNA)
DNA 1: B19 DNA 1 with A3T, T4A, T5A
DNA 2: B19 DNA 2 with A32T, A33T, T34A
B21: XGTACX_negctrl_site26 (dsDNA)
DNA 1: TATAATTTTTTTGAATTATATATATATATATATAAT
DNA 2: ATTATATATATATATATATAATTCAAAAAAATTATA
B22: XGTACX_negctrl_site524 (dsDNA)
DNA 1: AAAACTATTAATGCAAAAAATAAAATATAATAATAA
DNA 2: TTATTATTATATTTTATTTTTTGCATTAATAGTTTT
B23: XGTACX_negctrl_site521 (dsDNA)
DNA 1: ATGTTATAAATCTTAATATATATATGCAAAAGAGAA
DNA 2: TTCTCTTTTGCATATATATATTAAGATTTATAACAT
B24: XGTACX_negctrl_site385 (dsDNA)
DNA 1: TACTTCTCATTTGTTGTTGTATTTTAGGCATACCCT
DNA 2: AGGGTATGCCTAAAATACAACAACAAATGAGAAGTA
B25: XGTACX_negctrl_site149 (dsDNA)
DNA 1: AGAATTTAGAAACAATGTTGTATATGTAATACCTTT
DNA 2: AAAGGTATTACATATACAACATTGTTTCTAAATTCT
B26: XGTACX_negctrl_site580 (dsDNA)
DNA 1: ATACAAATTAAGCCTCAAGTTCTTTTTTTTAACATA
DNA 2: TATGTTAAAAAAAAGAACTTGAGGCTTAATTTGTAT
B27: XGTACX_negctrl_site14 (dsDNA)
DNA 1: AAATAAAAAGAAAAGAAAAAGAAAATAAAAAGAGAA
DNA 2: TTCTCTTTTTATTTTCTTTTTCTTTTCTTTTTATTT
B28: XGTACX_negctrl_site291 (dsDNA)
DNA 1: TTTTTTATATTTAAACTTCACATGGTTTTCATTTAT
DNA 2: ATAAATGAAAACCATGTGAAGTTTAAATATAAAAAA
B29: XGTACX_negctrl_site451 (dsDNA)
DNA 1: AACAAATAAAAAAAAATAAAAATAAAAATAAAAAAA
DNA 2: TTTTTTTATTTTTATTTTTATTTTTTTTTATTTGTT
B30: XGTACX_negctrl_site191 (dsDNA)
DNA 1: TTTTTAAAAAATAAGAAAAAATAAATATATTACAAA
DNA 2: TTTGTAATATATTTATTTTTTCTTATTTTTTAAAAA
B31: XGTACX_negctrl_site595 (dsDNA)
DNA 1: TTATATTATGTTCAATCAAAAATTATTTTTAAAAAA
DNA 2: TTTTTTAAAAATAATTTTTGATTGAACATAATATAA
B32: CACACA_site5248 (dsDNA)
DNA 1: CACAGACACGGACACACACACATATATATATATATA
DNA 2: TATATATATATATATGTGTGTGTGTCCGTGTCTGTG
B33: CACACA_site5249 (dsDNA)
DNA 1: B32 DNA 1 with A2G, G5C, C7G, T23C
DNA 2: B32 DNA 2 with A14G, G30C, C32G, T35C
B34: CACACA_site5883 (dsDNA)
DNA 1: B32 DNA 1 with C1T, G5T
DNA 2: B32 DNA 2 with C32A, G36A
B35: CACACA_site8012 (dsDNA)
DNA 1: ACATCAAGCAGACACACACACACACCCACCCACCCA
DNA 2: TGGGTGGGTGGGTGTGTGTGTGTGTCTGCTTGATGT
B36: CACACA_site7645 (dsDNA)
DNA 1: AAAAAAAATACATACACACACACACGCACATATATA
DNA 2: TATATATGTGCGTGTGTGTGTGTATGTATTTTTTTT
B37: CACACA_site6426 (dsDNA)
DNA 1: GGCATACACGAACACACACACACACGCACATATATA
DNA 2: TATATATGTGCGTGTGTGTGTGTGTTCGTGTATGCC
B38: CACACA_site2202 (dsDNA)
DNA 1: CGCACCCACAGACACACACACACATATATATATATA
DNA 2: TATATATATATATGTGTGTGTGTGTCTGTGGGTGCG
B39: CACACA_site2919 (dsDNA)
DNA 1: TACATACAGAAACACACACACACATATATATATATA
DNA 2: TATATATATATATGTGTGTGTGTGTTTCTGTATGTA
B40: CACACA_site8067 (dsDNA)
DNA 1: AACAAATACAGACACACACACACACTAATAAAAAAA
DNA 2: TTTTTTTATTAGTGTGTGTGTGTGTCTGTATTTGTT

Numbering of substitutions follows the chain as printed.

The first data set has as its target T1, AP2-G D1 (Plasmodium falciparum, UniProt Q8I5I9 2123-2245).
T1 sequence: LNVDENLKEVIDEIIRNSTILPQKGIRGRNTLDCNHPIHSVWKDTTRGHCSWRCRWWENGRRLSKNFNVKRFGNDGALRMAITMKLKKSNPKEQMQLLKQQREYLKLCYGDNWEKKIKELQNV
Briefly: gcPBM; about 25 ug protein; PBS, 1% milk, 0.2 mg/ml BSA, salmon testes DNA, 0.03% Triton X-100. As to conditions: tags: N-terminal GST (pGEX-4T-1), kept; label: surface-attached array probe.
On to B1, for which the binding signal was 9.81 ln median PBM intensity, better of two orientations.
On the same count and under the same terms, to B2 belongs 9.88 ln median PBM intensity, better of two orientations; to B3, 9.84 ln median PBM intensity, better of two orientations; to B4, 9.84 ln median PBM intensity, better of two orientations.
Same read-out and setting: to B5 belongs 9.84 ln median PBM intensity, better of two orientations.
Still for that read-out and setting: to B6 belongs 9.88 ln median PBM intensity, better of two orientations; to B7, 9.85 ln median PBM intensity, better of two orientations.
Take B8: the binding signal was 9.84 ln median PBM intensity, better of two orientations.
B9: the binding signal was 9.88 ln median PBM intensity, better of two orientations.
With B10, the binding signal is 9.87 ln median PBM intensity, better of two orientations.
Regarding B11, the binding signal was 9.85 ln median PBM intensity, better of two orientations.
Same read-out and setting: to B12 belongs 9.82 ln median PBM intensity, better of two orientations.
Still for that read-out and setting: to B13 belongs 9.85 ln median PBM intensity, better of two orientations; to B14, 9.83 ln median PBM intensity, better of two orientations.
Still for that read-out and setting: to B15 belongs 9.84 ln median PBM intensity, better of two orientations.
On to B16, for which the binding signal is 9.82 ln median PBM intensity, better of two orientations.
Still for that read-out and setting: to B17 belongs 9.83 ln median PBM intensity, better of two orientations; to B18, 9.84 ln median PBM intensity, better of two orientations; to B19, 9.83 ln median PBM intensity, better of two orientations.
Take B20: the binding signal is 9.85 ln median PBM intensity, better of two orientations.
Regarding B21, the binding signal was 9.84 ln median PBM intensity, better of two orientations.
The same measure, in the same setting: to B22 belongs 9.83 ln median PBM intensity, better of two orientations.
Take B23: the binding signal was 9.88 ln median PBM intensity, better of two orientations.
Same read-out and setting: to B24 belongs 9.85 ln median PBM intensity, better of two orientations; to B25, 9.82 ln median PBM intensity, better of two orientations.
On the same count and under the same terms, to B26 belongs 9.88 ln median PBM intensity, better of two orientations; to B27, 9.83 ln median PBM intensity, better of two orientations; to B28, 9.85 ln median PBM intensity, better of two orientations.
In the case of B29, the binding signal was 9.85 ln median PBM intensity, better of two orientations.
As to B30, the binding signal was 9.86 ln median PBM intensity, better of two orientations.
On the same count and under the same terms, to B31 belongs 9.82 ln median PBM intensity, better of two orientations.

The next data set addresses T2, AP2-LT D1 (Plasmodium falciparum, UniProt Q8IAM1 2520-2577).
T2 sequence: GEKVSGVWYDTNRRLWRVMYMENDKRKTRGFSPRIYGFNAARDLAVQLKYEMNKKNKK
The description is as above. As to conditions: tags: N-terminal GST (pGEX-4T-1), kept; label: surface-attached array probe.
B32: the binding signal is 10.9 ln median PBM intensity, better of two orientations.
Regarding B33, the binding signal is 10.7 ln median PBM intensity, better of two orientations.
With B34, the binding signal was 10.8 ln median PBM intensity, better of two orientations.
On the same count and under the same terms, to B35 belongs 10.8 ln median PBM intensity, better of two orientations; to B36, 10.7 ln median PBM intensity, better of two orientations; to B37, 10.7 ln median PBM intensity, better of two orientations.
Still for that read-out and setting: to B38 belongs 10.8 ln median PBM intensity, better of two orientations; to B39, 10.8 ln median PBM intensity, better of two orientations.
The same measure, in the same setting: to B40 belongs 10.8 ln median PBM intensity, better of two orientations.
